Target: T1, 6X His-tagged extracellular domain of canine PD-L1 (canine, UniProt E2RKZ5)
T1 construct: canine PD-L1 (CD274), extracellular domain; also called cPD-L1-His; His-tagged cPD-L1 protein; source: ExpiCHO cell system, purified (Ni-NTA agarose)
Experiment: BLI; Octet RED384; His-tagged cPD-L1 loaded on NTA biosensor at 200 nmol/L; 12C10E4 antibody at 50, 100, 200 nmol/L in kinetic buffer
Conditions: both partners purified

T1 sequence (E2RKZ5 entry or part of it): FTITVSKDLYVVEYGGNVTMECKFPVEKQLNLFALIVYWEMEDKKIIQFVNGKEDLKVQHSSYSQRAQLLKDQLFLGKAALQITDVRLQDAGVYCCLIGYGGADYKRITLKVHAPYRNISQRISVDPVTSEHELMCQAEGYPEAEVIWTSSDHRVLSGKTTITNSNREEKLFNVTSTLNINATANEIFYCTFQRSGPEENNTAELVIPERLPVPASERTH

Kd: 8.6 nM
B1: 12C10E4 chimeric antibody (12C10E4-cIgG; murine variable regions, canine IgG2 and canine kappa constant regions) (antibody, V domains shown)
VH: QVQLKQSGPGLVQPSQSLSITCTISGFSLTSFGVHWVRQSPGKGLEWLGVIWSGGSTDYNAAFTSRLSINKDNSKSQVFFKMNSLQADDTAIYYCARGGGPDWYFDVWGTGTTVTVSS
VL: DIVLTQSPASLAVSLGQRATISCRASESVEYYGTSLMQWYQQKPGQPPKLLIFAASNVKSGVPARFSGSGSGTDFSLNIHPVEEDDIAMYFCQQSGKVPHTFGGGTKLEIK
notes: VH of the mouse hybridoma 12C10E4; canine IgG2 heavy constant chain (called equivalent to human IgG1); VL of the mouse hybridoma 12C10E4; canine kappa light constant chain; also called 12C chimeric antibody; 12C cPD-L1 chimera antibody; source: ExpiCHO-S, transfected, purified (protein A agarose)

Source: paper PMC10184575, “Development of an Anti-canine PD-L1 Antibody and Caninized PD-L1 Mouse Model as Translational Research Tools for the Study of Immunotherapy in Humans” (Cancer Research Communications, 2023)
